Consider two molecules from paper PMC8519809 (Cell Reports, 2021).

One test addresses T1, MERS stem helix peptide (MERS-CoV).
T1 chain: DFQDELDEFFKNVST
Briefly: crystal structure.

For test [1], the target named is T2, SARS-CoV-2 stem helix peptide (SARS-CoV-2).
T2 chain: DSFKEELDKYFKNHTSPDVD
Briefly: crystal structure.

B1: Fab22 (Fab, V domains shown)
VH: EVQLQQPGPVLVKPGASVRMSCKASGYRITDNFMNWVKQSHGKSLEWIGIINPYNGGTKYNQKFKGKATLTVDTSSSTAYMELNSLTSEDSAVYYCTRVRGNDYHGRAMDYWGQGTSVTVSS
VL: DVVLTQTPLSLPVNIGDQASISCKSTKSLLNRDGFTFLDWYLQKPGQSPQLLIYLVSNRFSGVPDRFSGSGSGTDFTLKISRVEAEDLGVYYCFQSNYLFTFGSGTKLEIK
For B1, the binding result in the test with MERS stem helix peptide is given as “binds”.

B2: LCmod-Fab22 (Fab, V domains shown)
VH: EVQLQQPGPVLVKPGASVRMSCKASGYRITDNFMNWVKQSHGKSLEWIGIINPYNGGTKYNQKFKGKATLTVDTSSSTAYMELNSLTSEDSAVYYCTRVRGNDYHGRAMDYWGQGTSVTVSS
VL: DVVLTQTPLSLPVNIGDQASISCKSTKSLLNRDGFTFLDWYLQKPGQSPQLLIYLVSNRFSGVPDRFSGSGSGTDFTLKISRVEAEDLGVYYCFQSNYLFTFGSGTKLEIK
For B2, the binding result in test [1] is on record as “binds”.
